The supplement of paper PMC11246515
± gives the standard deviation of the averaged measurements.

Assay: total protein half-life in vivo (active degradation + dilution); higher = more stable protein
[1] = E. coli NCM3722 delta-clpP delta-lon delta-hslV, growth: N-lim chemostat, doubling time 6 h
[2] = wild type E. coli NCM3722, growth: P-lim chemostat, doubling time 12 h
[3] = E. coli NCM3722 delta-smpB, growth: N-lim chemostat, doubling time 6 h
[4] = wild type E. coli NCM3722, growth: N-lim chemostat, doubling time 12 h
[5] = E. coli NCM3722 delta-clpP, growth: N-lim chemostat, doubling time 6 h
[6] = E. coli NCM3722 delta-hslV, growth: N-lim chemostat, doubling time 6 h
[7] = wild type E. coli NCM3722, growth: C-lim chemostat, doubling time 3 h
[8] = wild type E. coli NCM3722, growth: C-lim chemostat, doubling time 6 h
[9] = wild type E. coli NCM3722, growth: P-lim chemostat, doubling time 6 h
[10] = E. coli NCM3722 delta-lon, growth: N-lim chemostat, doubling time 6 h
[11] = wild type E. coli NCM3722, growth: N-lim chemostat, doubling time 6 h
[12] = wild type E. coli NCM3722, growth: C-lim chemostat, doubling time 12 h

MIKIGVIADDFTGATDIASFLVENGLPTVQINGVPTGKMPEAIDALVISLKTRSCPVVEATQQSLAALSWLQQQGCKQIYFKYCSTFDSTAKGNIGPVTDALMDALDTPFTVFSPALPVNGRTVYQGYLFVMNQLLAESGMRHHPVNPMTDSYLPRLVEAQSTGRCGVVSAHVFEQGVDAVRQELARLQQEGYRYAVLDALTEHHLEIQGEALRDAPLVTGGSGLAIGLARQWAQENGNQARKAGRPLAGRGVVLSGSCSQMTNRQVAHYRQIAPAREVDVARCLSIETLAAYAHELAEWVLGQESVLAPLVFATASTDALAAIQQQYGAQKASQAVETLFSQLAARLAAEGVTRFIVAGGETSGVVTQSLGIKGFHIGPTISPACRG
total protein half-life in vivo [1]: 5.65 ± 0.84 h | total protein half-life in vivo [2]: 11.4 h

MIKKTTEIDAILLNLNKAIDAHYQWLVSMFHSVVARDASKPEITDNHSYGLCQFGRWIDHLGPLDNDELPYVRLMDSAHQHMHNCGRELMLAIVENHWQDAHFDAFQEGLLSFTAALTDYKIYLLTIRSNMDVLTGLPGRRVLDESFDHQLRNAEPLNLYLMLLDIDRFKLVNDTYGHLIGDVVLRTLATYLASWTRDYETVYRYGGEEFIIIVKAANDEEACRAGVRICQLVDNHAITHSEGHINITVTAGVSRAFPEEPLDVVIGRADRAMYEGKQTGRNRCMFIDEQNVINRV
total protein half-life in vivo [3]: 1.44 h | total protein half-life in vivo [4]: 3.5 h

MIKLSEKGVFLASNNEIIAEEHFTGEIKKEEAKKGTIAWSILSSHNTSGNMDKLKIKFDSLASHDITFVGIVQTAKASGMERFPLPYVLTNCHNSLCAVGGTINGDDHVFGLSAAQRYGGIFVPPHIAVIHQYMREMMAGGGKMILGSDSHTRYGALGTMAVGEGGGELVKQLLNDTWDIDYPGVVAVHLTGKPAPYVGPQDVALAIIGAVFKNGYVKNKVMEFVGPGVSALSTDFRNSVDVMTTETTCLSSVWQTDEEVHNWLALHGRGQDYCQLNPQPMAYYDGCISVDLSAIKPMIALPFHPSNVYEIDTLNQNLTDILREIEIESERVAHGKAKLSLLDKVENGRLKVQQGIIAGCSGGNYENVIAAANALRGQSCGNDTFSLAVYPSSQPVFMDLAKKGVVADLIGAGAIIRTAFCGPCFGAGDTPINNGLSIRHTTRNFPNREGSKPANGQMSAVALMDARSIAATAANGGYLTSASELDCWDNVPEYAFDVTPYKNRVYQGFVKGATQQPLIYGPNIKDWPELGALTDNIVLKVCSKILDEVTTTDELIPSGETSSYRSNPIGLAEFTLSRRDPGYVSRSKATAELENQRLAGNVSELTEVFARIKQIAGQEHIDPLQTEIGSMVYAVKPGDGSAREQAASCQRVIGGLANIAEEYATKRYRSNVINWGMLPLQMAEVPTFEVGDYIYIPGIKAALDNPGTTFKGYVIHEDAPVTEITLYMESLTAEEREIIKAGSLINFNKNRQM
total protein half-life in vivo [5]: 5.63 h | total protein half-life in vivo [6]: 6.45 h | total protein half-life in vivo [7]: 1.12 h | total protein half-life in vivo [8]: 1.87 ± 0.76 h | total protein half-life in vivo [9]: 2.37 h | total protein half-life in vivo [2]: 1.31 ± 0.42 h

MIKNLPQIVLLNIVGLALFLSWYIPVNHGFWLPIDADIFYFFNQKLVESKAFLWLVALTNNRAFDGCSLLAMGMLMLSFWLKENAPGRRRIVIIGLVMLLTAVVLNQLGQALIPVKRASPTLTFTDINRVSELLSVPTKDASRDSFPGDHGMMLLIFSAFMWRYFGKVAGLIALIIFVVFAFPRVMIGAHWFTDIIVGSMTVILIGLPWVLLTPLSDRLITFFDKSLPGKNKHFQNK
total protein half-life in vivo [1]: 6.44 ± 0.069 h | total protein half-life in vivo [6]: 5.96 h | total protein half-life in vivo [10]: 5.5 ± 0.33 h | total protein half-life in vivo [3]: 4.98 ± 0.75 h | total protein half-life in vivo [7]: > 4 h | total protein half-life in vivo [8]: 5.87 ± 0.17 h | total protein half-life in vivo [11]: 5.91 h | total protein half-life in vivo [4]: 9.71 h | total protein half-life in vivo [9]: 5.76 ± 0.068 h | total protein half-life in vivo [2]: 14.4 h

MIKQTIVALLLSVGASSVFAAGTVKVFSNGSSEAKTLTGAEHLIDLVGQPRLANSWWPGAVISEELATAAALRQQQALLTRLAEQGADSSADDAAAINALRQQIQALKVTGRQKINLDPDIVRVAERGNPPLQGNYTLWVGPPPSTVTLFGLISRPGKQPFTPGRDVASYLSDQSLLSGADRSYAWVVYPDGRTQKAPVAYWNKRHVEPMPGSIIYVGLADSVWSETPDALNADILQTLTQRIPQ
total protein half-life in vivo [1]: 7.07 h | total protein half-life in vivo [5]: 6.22 h | total protein half-life in vivo [10]: 7.193 ± 0.064 h | total protein half-life in vivo [3]: 5.1 ± 0.077 h

MIKTTPHKIVILMGILLSPSVFATDINVEFTATVKATTCNITLTGNNVTNDGNNNYTLRIPKMGLDKIANKTTESQADFKLVASGCSSGISWIDTTLTGNASSSSPKLIIPQSGDSSSTTSNIGMGFKKRTTDDATFLKPNSAEKIRWSTDEMQPDKGLEMTVALRETDAGQGVPGNFRALATFNFIYQ
total protein half-life in vivo [12]: 10.5 h

MIKVLFFAQVRELVGTDATEVAADFPTVEALRQHMAAQSDRWALALEDGKLLAAVNQTLVSFDHPLTDGDEVAFFPPVTGG
total protein half-life in vivo [5]: 4.52 ± 0.36 h | total protein half-life in vivo [6]: 4.61 ± 0.15 h | total protein half-life in vivo [10]: 5.83 ± 0.47 h | total protein half-life in vivo [3]: 4.6 ± 0.21 h | total protein half-life in vivo [7]: 2.96 ± 0.2 h | total protein half-life in vivo [8]: 4.76 ± 0.41 h | total protein half-life in vivo [12]: 9.64 ± 0.42 h | total protein half-life in vivo [11]: 4.25 ± 0.17 h | total protein half-life in vivo [4]: 7.72 ± 0.16 h | total protein half-life in vivo [9]: 5.12 ± 0.3 h | total protein half-life in vivo [2]: 11.7 ± 0.55 h

MIKVYGVPGWGSTISELMLTLADIPYQFVDVSGFDHEGASRELLKTLNPLCQVPTLALENDEIMTETAAIALMVLDRRPDLAPPVGRAERQLFQRLLVWLVANVYPTFTFADYPERWAPDAPEQLKKNVIEYRKSLYIWLNSQLTAEPYAFGEQLTLVDCYLCTMRTWGPGHEWFQDNATNISAIADAVCQLPKLQEVLKRNEII
total protein half-life in vivo [1]: 5.47 ± 0.78 h | total protein half-life in vivo [5]: 4.57 ± 0.21 h | total protein half-life in vivo [6]: 4.93 ± 0.096 h | total protein half-life in vivo [10]: 4.6 h | total protein half-life in vivo [3]: 4.48 ± 0.6 h | total protein half-life in vivo [8]: 4.99 h | total protein half-life in vivo [11]: 4.76 h | total protein half-life in vivo [9]: 6.17 h | total protein half-life in vivo [2]: 12.2 h

MILLIDNYDSFTWNLYQYFCELGADVLVKRNDALTLADIDALKPQKIVISPGPCTPDEAGISLDVIRHYAGRLPILGVCLGHQAMAQAFGGKVVRAAKVMHGKTSPITHNGEGVFRGLANPLTVTRYHSLVVEPDSLPACFDVTAWSETREIMGIRHRQWDLEGVQFHPESILSEQGHQLLANFLHR
total protein half-life in vivo [1]: 5.21 ± 0.68 h | total protein half-life in vivo [5]: 5.02 h | total protein half-life in vivo [6]: 3.72 ± 1.2 h | total protein half-life in vivo [10]: 4.94 ± 0.68 h | total protein half-life in vivo [3]: 4.35 ± 0.22 h | total protein half-life in vivo [7]: 3.31 ± 0.049 h | total protein half-life in vivo [8]: 5.88 ± 0.4 h | total protein half-life in vivo [12]: 10 h | total protein half-life in vivo [4]: 8.41 ± 0.11 h | total protein half-life in vivo [9]: 6.18 ± 0.066 h | total protein half-life in vivo [2]: 12.9 ± 0.99 h

MILSAFSLEGKVAVVTGCDTGLGQGMALGLAQAGCDIVGINIVEPTETIEQVTALGRRFLSLTADLRKIDGIPALLDRAVAEFGHIDILVNNAGLIRREDALEFSEKDWDDVMNLNIKSVFFMSQAAAKHFIAQGNGGKIINIASMLSFQGGIRVPSYTASKSGVMGVTRLMANEWAKHNINVNAIAPGYMATNNTQQLRADEQRSAEILDRIPAGRWGLPSDLMGPIVFLASSASDYVNGYTIAVDGGWLAR
total protein half-life in vivo [1]: 3.57 ± 0.82 h | total protein half-life in vivo [5]: 2.06 ± 0.13 h | total protein half-life in vivo [6]: 2.8 ± 0.69 h | total protein half-life in vivo [10]: 2.48 ± 0.36 h | total protein half-life in vivo [3]: 2.31 ± 0.11 h | total protein half-life in vivo [7]: 2.75 ± 0.077 h | total protein half-life in vivo [8]: 4.15 ± 0.16 h | total protein half-life in vivo [12]: 7.26 ± 0.34 h | total protein half-life in vivo [11]: 2.385 ± 0.018 h | total protein half-life in vivo [4]: 3.87 ± 0.81 h | total protein half-life in vivo [9]: 5.03 ± 0.081 h | total protein half-life in vivo [2]: 10.5 ± 0.36 h
